Reference: publication PMC4323659 (Scientific Reports, 2015)

Key:
VmoLac [1] = molecular target: T1, VmoLac (Vulcanisaeta moutnovskia, UniProt F0QXN6); type: biochemical
T1 construct: gene VMUT_2255; full length, 315 residues; Strep tag removed by TEV protease; E. coli BL21(DE3)-pGro7/GroEL; homodimer; bi-cobalt enzyme

CCC1CCC(=O)O1 = test: purified protein; settings: pH 8.3; 25.0 °C
CCCC1CCC(=O)O1 = test: purified protein; settings: pH 8.3; 25.0 °C
CCCCC1CCCC(=O)O1 = test: purified protein; settings: pH 8.3; 25.0 °C
[2] = tested on: CCCCCC(=O)CC(=O)N[C@H]1CCOC1=O; test: purified protein; settings: pH 8.3; 25.0 °C
CCCCCC1CCC(=O)O1 = test: purified protein; settings: pH 8.3; 25.0 °C
CCCCCCC1CCCC(=O)O1 = test: purified protein; settings: pH 8.3; 25.0 °C
[3] = tested on: CCCCCCCC(=O)CC(=O)N[C@H]1CCOC1=O; test: purified protein; settings: pH 8.3; 25.0 °C
CCCCCCCC(=O)NC1CCOC1=O = test: purified protein; settings: pH 8.3; 25.0 °C
CCCCCCCC1CCCC(=O)O1 = test: purified protein; settings: pH 8.3; 25.0 °C
CCCCCCCCC1CCC(=O)O1 = test: purified protein; settings: pH 8.3; 25.0 °C
VmoLac [4] = molecular target: T1, VmoLac; type: binding

`CCOP(=O)(OCC)Oc1ccc([N+](=O)[O-])cc1` [I, ethyl-paraoxon] showed a Km (VmoLac [1]; HEPES 50 mM pH 8, NaCl 150 mM, CoCl2 0.2 mM, 25°C) of 581 ± 61 µM.

`CC(=O)Oc1ccc([N+](=O)[O-])cc1` [VIII, pNP-Acetate] was tested, and the “KM (μM)” value (VmoLac [1]) was 4 471 ± 593 μM.

“VmoLac (Vulcanisaeta moutnovskia 768-28)” gave a Km (CCC1CCC(=O)O1) of 3709 ± 497 µM, a kcat/Km (CCC1CCC(=O)O1) of 30300 ± 4600 M⁻¹ s⁻¹ and a Km (CCCC1CCC(=O)O1) of 872 ± 220 µM. For the same compound, the kcat/Km (CCCC1CCC(=O)O1) was 31200 ± 8600 M⁻¹ s⁻¹, the Km (CCCCC1CCCC(=O)O1) was 1220 ± 59 µM and the kcat/Km (CCCCC1CCCC(=O)O1) was 72900 ± 3700 M⁻¹ s⁻¹. For the same compound, the Km [2] was 186 ± 37 µM, the kcat/Km [2] was 1880 ± 380 M⁻¹ s⁻¹ and the Km (CCCCCC1CCC(=O)O1) was 47 ± 11 µM. The kcat/Km (CCCCCC1CCC(=O)O1) was 948000 ± 218000 M⁻¹ s⁻¹, the Km (CCCCCCC1CCCC(=O)O1) was 105 ± 24 µM and the kcat/Km (CCCCCCC1CCCC(=O)O1) was 580000 ± 132000 M⁻¹ s⁻¹. For the same compound, the Km [3] was 231 ± 55 µM, the kcat/Km [3] was 2050 ± 500 M⁻¹ s⁻¹ and the Km (CCCCCCCC(=O)NC1CCOC1=O) was 262 ± 54 µM. For the same compound, the kcat/Km (CCCCCCCC(=O)NC1CCOC1=O) was 2230 ± 480 M⁻¹ s⁻¹, the K0.5 (CCCCCCCC1CCCC(=O)O1) was 839 ± 13 µM and the K0.5 (CCCCCCCCC1CCC(=O)O1) was 2.1 ± 0.6 µM. For the same compound, the kcat/Km (CCCCCCCCC1CCC(=O)O1) was 77700 ± 24000 M⁻¹ s⁻¹.

With `CCCCCCCC(=O)CC(=O)N[C@H]1CCOC1=O` [XVI, 3-oxo C10 AHL] the “X-ray crystal structure, soaked crystal, 2.0 Å” value (VmoLac [4]) was “Crystals of VmoLac were soaked with 3-oxo-C10 AHL, and the lactone sits”.
